# Source: the supplement of paper PMC11246515
# ± gives the standard deviation of the averaged measurements.
# Test: total protein half-life in vivo (active degradation + dilution); higher = more stable protein
# [1] = E. coli NCM3722 delta-clpP delta-lon delta-hslV, growth: N-lim chemostat, doubling time 6 h
# [2] = E. coli NCM3722 delta-hslV, growth: N-lim chemostat, doubling time 6 h
# [3] = E. coli NCM3722 delta-lon, growth: N-lim chemostat, doubling time 6 h
# [4] = E. coli NCM3722 delta-smpB, growth: N-lim chemostat, doubling time 6 h
# [5] = wild type E. coli NCM3722, growth: C-lim chemostat, doubling time 3 h
# [6] = wild type E. coli NCM3722, growth: C-lim chemostat, doubling time 6 h
# [7] = wild type E. coli NCM3722, growth: C-lim chemostat, doubling time 12 h
# [8] = wild type E. coli NCM3722, growth: N-lim chemostat, doubling time 6 h
# [9] = wild type E. coli NCM3722, growth: P-lim chemostat, doubling time 6 h
# [10] = wild type E. coli NCM3722, growth: P-lim chemostat, doubling time 12 h
# [11] = E. coli NCM3722 delta-clpP, growth: N-lim chemostat, doubling time 6 h
# [12] = wild type E. coli NCM3722, growth: N-lim chemostat, doubling time 12 h
Sequence,total protein half-life in vivo [1] [h],total protein half-life in vivo [2] [h],total protein half-life in vivo [3] [h],total protein half-life in vivo [4] [h],total protein half-life in vivo [5] [h],total protein half-life in vivo [6] [h],total protein half-life in vivo [7] [h],total protein half-life in vivo [8] [h],total protein half-life in vivo [9] [h],total protein half-life in vivo [10] [h],total protein half-life in vivo [11] [h],total protein half-life in vivo [12] [h]
MSKFLDRFRYFKQKGETFADGHGQLLNTNRDWEDGYRQRWQHDKIVRSTHGVNCTGSCSWKIYVKNGLVTWETQQTDYPRTRPDLPNHEPRGCPRGASYSWYLYSANRLKYPMMRKRLMKMWREAKALHSDPVEAWASIIEDADKAKSFKQARGRGGFVRSSWQEVNELIAASNVYTIKNYGPDRVAGFSPIPAMSMVSYASGARYLSLIGGTCLSFYDWYCDLPPASPQTWGEQTDVPESADWYNSSYIIAWGSNVPQTRTPDAHFFTEVRYKGTKTVAVTPDYAEIAKLCDLWLAPKQGTDAAMALAMGHVMLREFHLDNPSQYFTDYVRRYTDMPMLVMLEERDGYYAAGRMLRAADLVDALGQENNPEWKTVAFNTNGEMVAPNGSIGFRWGEKGKWNLEQRDGKTGEETELQLSLLGSQDEIAEVGFPYFGGDGTEHFNKVELENVLLHKLPVKRLQLADGSTALVTTVYDLTLANYGLERGLNDVNCATSYDDVKAYTPAWAEQITGVSRSQIIRIAREFADNADKTHGRSMIIVGAGLNHWYHLDMNYRGLINMLIFCGCVGQSGGGWAHYVGQEKLRPQTGWQPLAFALDWQRPARHMNSTSYFYNHSSQWRYETVTAEELLSPMADKSRYTGHLIDFNVRAERMGWLPSAPQLGTNPLTIAGEAEKAGMNPVDYTVKSLKEGSIRFAAEQPENGKNHPRNLFIWRSNLLGSSGKGHEFMLKYLLGTEHGIQGKDLGQQGGVKPEEVDWQDNGLEGKLDLVVTLDFRLSSTCLYSDIILPTATWYEKDDMNTSDMHPFIHPLSAAVDPAWEAKSDWEIYKAIAKKFSEVCVGHLGKETDIVTLPIQHDSAAELAQPLDVKDWKKGECDLIPGKTAPHIMVVERDYPATYERFTSIGPLMEKIGNGGKGIAWNTQSEMDLLRKLNYTKAEGPAKGQPMLNTAIDAAEMILTLAPETNGQVAVKAWAALSEFTGRDHTHLALNKEDEKIRFRDIQAQPRKIISSPTWSGLEDEHVSYNAGYTNVHELIPWRTLSGRQQLYQDHQWMRDFGESLLVYRPPIDTRSVKEVIGQKSNGNQEKALNFLTPHQKWGIHSTYSDNLLMLTLGRGGPVVWLSEADAKDLGIADNDWIEVFNSNGALTARAVVSQRVPAGMTMMYHAQERIVNLPGSEITQQRGGIHNSVTRITPKPTHMIGGYAHLAYGFNYYGTVGSNRDEFVVVRKMKNIDWLDGEGNDQVQESVK,6.33 ± 1.8,5.88 ± 0.73,6.6 ± 0.84,4.97 ± 0.39,2.41,6.81,13.2,6.23 ± 0.94,5.64 ± 0.29,12.1 ± 1.3,,
MSKIKGNVKWFNESKGFGFITPEDGSKDVFVHFSAIQTNGFKTLAEGQRVEFEITNGAKGPSAANVIAL [P0A972],3.54 ± 0.22,1.7 ± 0.036,3.44 ± 0.12,1.96 ± 0.28,2.156 ± 0.014,2.37 ± 0.17,2.62 ± 0.54,1.8 ± 0.15,1.945 ± 0.018,3.16 ± 0.3,2.27 ± 0.041,2.23 ± 0.19
MSKKIAVLITDEFEDSEFTSPADEFRKAGHEVITIEKQAGKTVKGKKGEASVTIDKSIDEVTPAEFDALLLPGGHSPDYLRGDNRFVTFTRDFVNSGKPVFAICHGPQLLISADVIRGRKLTAVKPIIIDVKNAGAEFYDQEVVVDKDQLVTSRTPDDLPAFNREALRLLGA,6.07 ± 1.3,5.59 ± 1.4,5.74 ± 0.21,4.51 ± 0.087,3.22 ± 0.3,5.32 ± 0.083,9.27 ± 0.35,4.72 ± 0.18,5.12 ± 0.29,10.6 ± 1.1,4.34 ± 0.18,7.76 ± 0.18
MSKKYIIGIDGGSQSTKVVMYDLEGNVVCEGKGLLQPMHTPDADTAEHPDDDLWASLCFAGHDLMSQFAGNKEDIVGIGLGSIRCCRALLKADGTPAAPLISWQDARVTRPYEHTNPDVAYVTSFSGYLTHRLTGEFKDNIANYFGQWPVDYKSWAWSEDAAVMDKFNIPRHMLFDVQMPGTVLGHITPQAALATHFPAGLPVVCTTSDKPVEALGAGLLDDETAVISLGTYIALMMNGKALPKDPVAYWPIMSSIPQTLLYEGYGIRKGMWTVSWLRDMLGESLIQDARAQDLSPEDLLNKKASCVPPGCNGLMTVLDWLTNPWEPYKRGIMIGFDSSMDYAWIYRSILESVALTLKNNYDNMCNEMNHFAKHVIITGGGSNSDLFMQIFADVFNLPARRNAINGCASLGAAINTAVGLGLYPDYATAVDNMVRVKDIFIPIESNAKRYDAMNKGIFKDLTKHTDVILKKSYEVMHGELGNVDSIQSWSNA,2.5,,,,2.855 ± 0.0047,4.03 ± 0.54,8.14 ± 1.2,,,2.92,,
MSKPFKLNSAFKPSGDQPEAIRRLEEGLEDGLAHQTLLGVTGSGKTFTIANVIADLQRPTMVLAPNKTLAAQLYGEMKEFFPENAVEYFVSYYDYYQPEAYVPSSDTFIEKDASVNEHIEQMRLSATKAMLERRDVVVVASVSAIYGLGDPDLYLKMMLHLTVGMIIDQRAILRRLAELQYARNDQAFQRGTFRVRGEVIDIFPAESDDIALRVELFDEEVERLSLFDPLTGQIVSTIPRFTIYPKTHYVTPRERIVQAMEEIKEELAARRKVLLENNKLLEEQRLTQRTQFDLEMMNELGYCSGIENYSRFLSGRGPGEPPPTLFDYLPADGLLVVDESHVTIPQIGGMYRGDRARKETLVEYGFRLPSALDNRPLKFEEFEALAPQTIYVSATPGNYELEKSGGDVVDQVVRPTGLLDPIIEVRPVATQVDDLLSEIRQRAAINERVLVTTLTKRMAEDLTEYLEEHGERVRYLHSDIDTVERMEIIRDLRLGEFDVLVGINLLREGLDMPEVSLVAILDADKEGFLRSERSLIQTIGRAARNVNGKAILYGDKITPSMAKAIGETERRREKQQKYNEEHGITPQGLNKKVVDILALGQNIAKTKAKGRGKSRPIVEPDNVPMDMSPKALQQKIHELEGLMMQHAQNLEFEEAAQIRDQLHQLRELFIAAS [P0A8F8],5.26 ± 0.16,2.99 ± 0.055,3.39 ± 0.18,2.85 ± 0.065,2.44 ± 0.18,4.02 ± 0.073,6.348 ± 0.01,2.96 ± 0.15,3.67 ± 0.054,5.85 ± 0.49,4.561 ± 0.016,4.85 ± 0.78
MSKPIVMERGVKYRDADKMALIPVKNVATEREALLRKPEWMKIKLPADSTRIQGIKAAMRKNGLHSVCEEASCPNLAECFNHGTATFMILGAICTRRCPFCDVAHGRPVAPDANEPVKLAQTIADMALRYVVITSVDRDDLRDGGAQHFADCITAIREKSPQIKIETLVPDFRGRMDRALDILTATPPDVFNHNLENVPRIYRQVRPGADYNWSLKLLERFKEAHPEIPTKSGLMVGLGETNEEIIEVMRDLRRHGVTMLTLGQYLQPSRHHLPVQRYVSPDEFDEMKAEALAMGFTHAACGPFVRSSYHADLQAKGMEVK,5.22 ± 1,1.64 ± 0.38,1.84 ± 0.034,1.27 ± 0.14,1.23 ± 0.056,1.93 ± 0.095,2.47 ± 0.21,1.67 ± 0.095,1.74 ± 0.22,3.3 ± 0.49,1.56 ± 0.071,2.4 ± 0.28
